Assay [1] deals with T1, soluble p97 (amino acids 20-710 of human p97 precursor) (Homo sapiens, UniProt P08582).
T1 construct: Soluble p97 (amino acids 20-710 of human p97 precursor); 6xHis; made in house
T1 sequence (P08582 20-710): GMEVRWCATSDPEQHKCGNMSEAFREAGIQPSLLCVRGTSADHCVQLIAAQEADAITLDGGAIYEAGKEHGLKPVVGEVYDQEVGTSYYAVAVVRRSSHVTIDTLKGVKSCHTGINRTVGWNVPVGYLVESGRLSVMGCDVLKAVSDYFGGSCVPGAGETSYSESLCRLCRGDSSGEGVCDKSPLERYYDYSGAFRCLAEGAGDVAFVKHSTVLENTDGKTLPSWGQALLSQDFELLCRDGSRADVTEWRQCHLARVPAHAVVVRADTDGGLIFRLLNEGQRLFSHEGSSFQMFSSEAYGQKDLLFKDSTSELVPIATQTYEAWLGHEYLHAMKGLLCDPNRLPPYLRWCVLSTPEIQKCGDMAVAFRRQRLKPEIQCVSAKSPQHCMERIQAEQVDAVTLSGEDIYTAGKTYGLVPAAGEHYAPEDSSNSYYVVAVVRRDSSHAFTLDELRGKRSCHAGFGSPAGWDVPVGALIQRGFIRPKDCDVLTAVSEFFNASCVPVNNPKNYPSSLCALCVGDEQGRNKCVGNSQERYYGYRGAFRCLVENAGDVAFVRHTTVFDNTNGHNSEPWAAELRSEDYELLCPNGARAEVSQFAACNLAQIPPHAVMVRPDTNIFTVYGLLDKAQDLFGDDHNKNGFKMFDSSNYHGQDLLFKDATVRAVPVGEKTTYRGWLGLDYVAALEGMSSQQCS
Briefly: solid-phase p97 binding assay of crude refolded fusion proteins (refolding efficiency). The settings on record: crude refolds normalized on β-lactamase activity. The procedure:
For small scale expression BL21([DE3) (Novagen) were transformed with parental and mutant constructs and single colonies was used to inoculate 100 ml Terrific Broth II (TB) (QBIOGENE). Cells were induced at an OD of 1.0 with 1 mM IPTG (Sigma). Cells were harvested following overnight incubation and inclusion bodies were purified from the cell extracts using B-Per (Novagen) according to the manufacturers instructions. Inclusion body pellets were resuspended in 8 M urea, 2 mM DTT, 50 mM Tris.Cl pH 8.0 at a concentration of 50 mg/ml. Inclusion bodies were refolded overnight in a 50-fold dilution of 2 M urea, 0.3 M L-arginine, 50 mM Tris.Cl pH 8.0, 1 mM reduced glutathione, 0.1 mM oxidized glutathione. Protein was then dialyzed into PBS and fusion protein concentration was determined by measuring β-lactamase activity using colorimetric substrate nitrocefin.
Soluble p97 (amino acids 20-710 of human p97 precursor) was cloned into pSecTag2 (Invitrogen), incorporating an Ig Kappa leader sequence and a 6× his tag, and transfected into CHO cells. Stable transformants were selected and secreted protein was purified from conditioned medium on a metal chelate affinity column. Assays were performed by coating polystyrene 96-well plates with 2 μg/ml soluble p97 in PBS overnight. The plates were blocked by adding 1% bovine serum albumin in PBS for 1 hour at room temperature. Plates were emptied and fresh blocking reagent containing serial dilutions of L49-sFv-bL samples was added. Following 1 hour at room temperature the plates were washed and developed with 0.1 ml of colorimetric β-lactamase substrate nitrocefin solution at 0.1 mM in PBS containing 1% DMSO. Absorbance measurements were read in an ELISA plate reader using a 490 nm filter with 610 m as the reference wavelength.
The unusual residues in the L49 scFv framework were mutated to the most frequently occurring residue for that position in the Kabat database (Chowdhury et al., 1998, J. Mol. Biol. 281, 917-928). […] Binding to p97 was then determined using a solid-phase binding assay as described in Section 6.1.3, supra.

In another assay the target is T2, Recombinant p97 (Homo sapiens, UniProt P08582).
T2 construct: Soluble p97 (amino acids 20-710 of human p97 precursor); 6xHis; made in house
T2 sequence (P08582 20-710): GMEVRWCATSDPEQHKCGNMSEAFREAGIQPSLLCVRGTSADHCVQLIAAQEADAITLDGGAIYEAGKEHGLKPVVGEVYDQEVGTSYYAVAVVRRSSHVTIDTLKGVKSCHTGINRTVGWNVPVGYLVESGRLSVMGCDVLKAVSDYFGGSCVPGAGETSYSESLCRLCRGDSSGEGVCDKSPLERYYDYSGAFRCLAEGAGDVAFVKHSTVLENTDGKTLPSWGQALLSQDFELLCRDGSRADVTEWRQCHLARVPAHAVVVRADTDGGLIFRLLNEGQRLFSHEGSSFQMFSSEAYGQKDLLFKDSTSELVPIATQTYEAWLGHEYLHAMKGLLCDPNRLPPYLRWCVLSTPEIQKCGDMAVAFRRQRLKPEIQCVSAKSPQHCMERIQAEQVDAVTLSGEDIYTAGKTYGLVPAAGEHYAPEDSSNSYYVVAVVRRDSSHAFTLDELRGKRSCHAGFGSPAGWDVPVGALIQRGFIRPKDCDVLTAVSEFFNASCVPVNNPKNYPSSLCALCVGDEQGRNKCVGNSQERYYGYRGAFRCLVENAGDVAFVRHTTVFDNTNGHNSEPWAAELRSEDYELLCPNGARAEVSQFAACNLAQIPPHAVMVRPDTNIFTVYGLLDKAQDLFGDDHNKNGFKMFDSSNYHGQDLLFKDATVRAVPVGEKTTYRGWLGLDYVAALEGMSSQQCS
Briefly: binding affinity by surface plasmon resonance (Biacore 2000). The settings on record: 25° C., immobilized p97, 1:1 model, error in last digit in parentheses. The procedure:
The buffer used in the study was PBS, 0.005% P20, 0.2 mg/mi BSA. Antigen was immobilized on one flow cell surface of a CM5 sensor chip and the others were left blank to serve as reference surfaces. For each scFv, triplicates of 0, 0.5, 2.8, 8.3, 25, 75 and 225 nM were injected across the immobilized antigen. The association and dissociation phases were monitored for 1 and 20 minutes, respectively. The antigen surface was regenerated with four 18-second pulses of 2.5 mM NaOH between injections.
The binding affinities of double mutants FP960 and FP965 and triple mutants FP990 and FP999 were compared to the parental molecule by surface plasmon resonance. Recombinant p97 was immobilized on a BIACore CM5 sensor chip and varying concentrations of each scFv fusion protein were injected across the chip in triplicate.

This is an account of results in US20060160174A1, “Modified l49-sfv exhibiting increased stability and methods of use thereof” (priority 2002, published 2006).

B1: FP930: L49-sFv-bL with mutation K H39 Q (protein)
scFv: MEVQLQESGPSLVKPSQTLSLTCSVTGDSITSGYWNWIRQFPGNKLEYMGYISDSGITYYNPSLKSRISITRDTSKNQYYLQLNFVTAEDTATYNCARRTLATYYAMDYWGQGTSVTVSSGSTSGSGKPGSGEGSTKGDFVMTQTPLSLPVSLGDQASISCRASQSLVHSNGNTYLHWYLQKPGQSPKLLIYRVSNRFSGVPDRFSGSGSGTDFTLKISRVEAEDLGVYFCSQSTHVPPTFGGGTKLEIKRTPVSEKQLAEVVANTITPLMKAQSVPGMAVAVIYQGKPHYYTFGKADIAANKPVTPQTLFELGSISKTFTGVLGGDAIARGEISLDDAVTRYWPQLTGKQWQGIRMLDLATYTAGGLPLQVPDEVTDNASLLRFYQNWQPQWKPGTTRLYANASIGLFGALAVKPSGMPYEQAMTTRVLKPLKLDHTWINVPKAEEAHYAWGYRDGKAVRVSPGMLDAQAYGVKTNVQDMANWVMANMAPENVADASLKQGIALAQSRYWRIGSMYQGLGWEMLNWPVEANTVVETSFGNVALAPLPVAEVNPPAPPVKASWVHKTGSTGGFGSYVAFIPEKQIGIVMLANTSYPNPARVEAAYHILEALQ
Regarding B1, the “antigen binding of refolded mutant compared to parental L49-sFv-bL (FP95)” value (shortened to “antigen binding of refolded mutant”) in assay [1] is recorded as “significant increases in antigen binding”.

B2: FP950: L49-sFv-bL with mutation N H91 Y (protein)
scFv: MEVQLQESGPSLVKPSQTLSLTCSVTGDSITSGYWNWIRKFPGNKLEYMGYISDSGITYYNPSLKSRISITRDTSKNQYYLQLNFVTAEDTATYYCARRTLATYYAMDYWGQGTSVTVSSGSTSGSGKPGSGEGSTKGDFVMTQTPLSLPVSLGDQASISCRASQSLVHSNGNTYLHWYLQKPGQSPKLLIYRVSNRFSGVPDRFSGSGSGTDFTLKISRVEAEDLGVYFCSQSTHVPPTFGGGTKLEIKRTPVSEKQLAEVVANTITPLMKAQSVPGMAVAVIYQGKPHYYTFGKADIAANKPVTPQTLFELGSISKTFTGVLGGDAIARGEISLDDAVTRYWPQLTGKQWQGIRMLDLATYTAGGLPLQVPDEVTDNASLLRFYQNWQPQWKPGTTRLYANASIGLFGALAVKPSGMPYEQAMTTRVLKPLKLDHTWINVPKAEEAHYAWGYRDGKAVRVSPGMLDAQAYGVKTNVQDMANWVMANMAPENVADASLKQGIALAQSRYWRIGSMYQGLGWEMLNWPVEANTVVETSFGNVALAPLPVAEVNPPAPPVKASWVHKTGSTGGFGSYVAFIPEKQIGIVMLANTSYPNPARVEAAYHILEALQ
Regarding B2, in assay [1], the “antigen binding of refolded mutant” value was “significant increases in antigen binding”.

B3: FP960: L49-sFv-bL double mutant F H82B S, N H91 Y (protein)
scFv: MEVQLQESGPSLVKPSQTLSLTCSVTGDSITSGYWNWIRKFPGNKLEYMGYISDSGITYYNPSLKSRISITRDTSKNQYYLQLNSVTAEDTATYYCARRTLATYYAMDYWGQGTSVTVSSGSTSGSGKPGSGEGSTKGDFVMTQTPLSLPVSLGDQASISCRASQSLVHSNGNTYLHWYLQKPGQSPKLLIYRVSNRFSGVPDRFSGSGSGTDFTLKISRVEAEDLGVYFCSQSTHVPPTFGGGTKLEIKRTPVSEKQLAEVVANTITPLMKAQSVPGMAVAVIYQGKPHYYTFGKADIAANKPVTPQTLFELGSISKTFTGVLGGDAIARGEISLDDAVTRYWPQLTGKQWQGIRMLDLATYTAGGLPLQVPDEVTDNASLLRFYQNWQPQWKPGTTRLYANASIGLFGALAVKPSGMPYEQAMTTRVLKPLKLDHTWINVPKAEEAHYAWGYRDGKAVRVSPGMLDAQAYGVKTNVQDMANWVMANMAPENVADASLKQGIALAQSRYWRIGSMYQGLGWEMLNWPVEANTVVETSFGNVALAPLPVAEVNPPAPPVKASWVHKTGSTGGFGSYVAFIPEKQIGIVMLANTSYPNPARVEAAYHILEALQ
As to B3, in the assay with Recombinant p97, the ka was 3.640(4) × 10^5 M^−1 s^−1 and the kd was 6.383(7) × 10^−4 s^−1.

B4: FP945: L49-sFv-bL with mutation F H82B S (protein)
scFv: MEVQLQESGPSLVKPSQTLSLTCSVTGDSITSGYWNWIRKFPGNKLEYMGYISDSGITYYNPSLKSRISITRDTSKNQYYLQLNSVTAEDTATYNCARRTLATYYAMDYWGQGTSVTVSSGSTSGSGKPGSGEGSTKGDFVMTQTPLSLPVSLGDQASISCRASQSLVHSNGNTYLHWYLQKPGQSPKLLIYRVSNRFSGVPDRFSGSGSGTDFTLKISRVEAEDLGVYFCSQSTHVPPTFGGGTKLEIKRTPVSEKQLAEVVANTITPLMKAQSVPGMAVAVIYQGKPHYYTFGKADIAANKPVTPQTLFELGSISKTFTGVLGGDAIARGEISLDDAVTRYWPQLTGKQWQGIRMLDLATYTAGGLPLQVPDEVTDNASLLRFYQNWQPQWKPGTTRLYANASIGLFGALAVKPSGMPYEQAMTTRVLKPLKLDHTWINVPKAEEAHYAWGYRDGKAVRVSPGMLDAQAYGVKTNVQDMANWVMANMAPENVADASLKQGIALAQSRYWRIGSMYQGLGWEMLNWPVEANTVVETSFGNVALAPLPVAEVNPPAPPVKASWVHKTGSTGGFGSYVAFIPEKQIGIVMLANTSYPNPARVEAAYHILEALQ
As to B4, in assay [1], the “antigen binding of refolded mutant” value is “significant increases in antigen binding”.

B5: FP965: L49-sFv-bL double mutant K H39 Q, N H91 Y (protein)
scFv: MEVQLQESGPSLVKPSQTLSLTCSVTGDSITSGYWNWIRQFPGNKLEYMGYISDSGITYYNPSLKSRISITRDTSKNQYYLQLNFVTAEDTATYYCARRTLATYYAMDYWGQGTSVTVSSGSTSGSGKPGSGEGSTKGDFVMTQTPLSLPVSLGDQASISCRASQSLVHSNGNTYLHWYLQKPGQSPKLLIYRVSNRFSGVPDRFSGSGSGTDFTLKISRVEAEDLGVYFCSQSTHVPPTFGGGTKLEIKRTPVSEKQLAEVVANTITPLMKAQSVPGMAVAVIYQGKPHYYTFGKADIAANKPVTPQTLFELGSISKTFTGVLGGDAIARGEISLDDAVTRYWPQLTGKQWQGIRMLDLATYTAGGLPLQVPDEVTDNASLLRFYQNWQPQWKPGTTRLYANASIGLFGALAVKPSGMPYEQAMTTRVLKPLKLDHTWINVPKAEEAHYAWGYRDGKAVRVSPGMLDAQAYGVKTNVQDMANWVMANMAPENVADASLKQGIALAQSRYWRIGSMYQGLGWEMLNWPVEANTVVETSFGNVALAPLPVAEVNPPAPPVKASWVHKTGSTGGFGSYVAFIPEKQIGIVMLANTSYPNPARVEAAYHILEALQ
Take B5: in the assay with Recombinant p97, the ka is given as 4.000(6) × 10^5 M^−1 s^−1 and the kd is 7.65(1) × 10^−4 s^−1.
